The record followed here is a protein production outcome set (Wang et al. 2014).

A short description of the series: label from the status in PepcDB records.

As for “MKVALGGTFEPLHEGHKKLIDVAIKLGGRDITIGVTSDRMARARIRSVLPFAIRAENVKRYVMRKYGFEPEIVKITNPYGKTLDVDFEYLVVSPETYEMALKINQKREELGKRKITIVKVDWMMAEDGKPISSTRIKRGEIDRYGGII”, the protein production result was “not failed”.
Next, “MKVASGSTATAAAGPSCALKAGKTASGAGEVVRCLSEQSVAISRCAGGAGARLPALLDEQQVNVLLYDMNGCYSRLKELVPTLPQNRKVSKVEILQHVIDYIRDLQLELNSESEVGTPGGRGLPVRAPLSTLNGEISALTAEAACVPADDRILCR”: “failed”; “MKVCYYYDGDVGNYYYGQGHPMKPHRIRMTHNLLLNYGLYRKMEIYRPHKANAEEMTKYHSDDYIKFLRSIRPDNMSEYSKQMQRFNVGEDCPVFDGLFEFCQLSTGGSVASAVKLNKQQTDIAVNWAGGLHHAKKSEASGFCYVNDIVLAILELLKYHQRVLYIDIDIHHGDGVEEAFYTTDRVMTVSFHKYGEYFPGTGDLRDIGAGKGKYYAVNYPLRDGIDDESYEAIFKPVMSKVMEMFQPSAVVLQCGSDSLSGDRLGCFNLTIKGHAKCVEFVKSFNLPMLMLGGGGYTIRNVARCWTYETAVALDTEIPNELPYNDYFEYFGPDFKLHISPSNMTNQNTNEYLEKIKQRLFENLRMLPHLEHHHHHH”: “failed”; “MKVFFVVTHLLGSGHLSRTLVLARAHLKAGHEVTLISGGMPVPHLSHDGITLVQLPALRSDGVNFTRLLDDKGDVASETLMRDRREKLLSTFEEAAPDVLVTELFPFGRRSLSDEFLALLNMAKARKNPPRICCSIRDILAPPSKPSKAARVRDIITEFYDAIIVHSDPDVTPLAASWPVTEDIAEKLRYSGFVANPPAPMHPDAPGQGEVLVSAGGGAVGDALYAAALGAAKLNGDLHWRVLVGGADAPAKCAALKEGCPANTTIEPARPDFRQMLHRAKASVSMCGYNTALDILQSGTPAVFVPFDAGGEVEQSLRASALAKMAGIRVVNSVDLQPEALLNTVHSVVQDPRRGPQTRGLDGASRTAELLETLVEASGHAG”: “failed”.
In the case of “MKVFVIGAGLMGRGIAIAIASKHEVVLQDVSEKALEAAREQIPEELLSKIEFTTTLEKVKDCDIVMEAVFEDLNTKVEVLREVERLTNAPLCSNTSVISVDDIAERLDSPSRFLGVHWMNPPHVMPLVEIVISRFTDSKTVAFVEGFLRELGKEVVVCKGQSLVNRFNAAVLSEASRMIEEGVRAEDVDRVWKHHLGLLYTLFGPLGNLDYIGLDVAYYASLYLYKRFGDEKFKPPEWLQEKIKKGEVGVKAGKGIYEYGPKAYEERVERLKKLLRFLGLE”, the protein production result is on record as “not failed”.
Next, “MKVGSQVIINTSHMKGMKGAEATVTGAYDTTAYVVSYTPTNGGQRVDHHKWVIQEEIKLEHHHHHH”: “failed”; “MKVIIIGGETTAYYLARSMLSRKYGVVIINKDRELCEEFAKKLKATIIHGDGSHKEILRDAEVSKNDVVVILTPRDEVNLFIAQLVMKDFGVKRVVSLVNDPGNMEIFKKMGITTVLNLTTLITNTVEALIFPDEFSSIIPLEQ”: “not failed”.
Regarding “MKVIKSNKVTNKFKVSILISTYNKEKFIENTLNNILAQTMNKNDFELIIVDDCSTDNTLDIISKKIESFSNYQFVQLDENSGTPAKPRNLSIDLSKGKYIMFVDGDDWLPSDALENLYTLLKSNKTDYATGLTKYVYSDRIARSGVALSKIAYNKIGLKNFRKSFYHLAPAGRMMKSSVIKKNNIRFPEMIFGEDLQFFAEVFFNTKNISTTQDVVYCANRYDENISLVKSEASTVLNRIKWQNEAYRYLTKKYKNNKIFANLLYRIINKDILEGKFYKKGFIKEIDTLLPVFQDILNTIDNDFNSLDYADDTLNQHALTLIKNGDKEEIIDFVNFYLKKDEKPLYLSNDKYYYVYKENKYKKRMHIILQKIIKKDENIFLKLYSKNSELKYLEIKNRKDPTNYTVLEIKKHLFKTGEYTVQFKANELSKGKLALTVLDKDLNGAAIKSGMQFDFYETVNGNLGYIKKLEHHHHHH”, the protein production result is given as “not failed”.
Under “MKVKILVDSTADVPFSWMEKYDIDSIPLYVVWEDGRSEPDEREPEEIMNFYKRIREAGSVPKTSQPSVEDFKKRYLKYKEEDYDVVLVLTLSSKLSGTYNSAVLASKEVDIPVYVVDTLLASGAIPLPARVAREMLENGATIEEVLKKLDERMKNKDFKAIFYVSNFDYLVKGGRVSKFQGFVGNLLKIRVCLHIENGELIPYRKVRGDKKAIEALIEKLREDTPEGSKLRVIGVHADNEAGVVELLNTLRKSYEVVDEIISPMGKVITTHVGPGTVGFGIEVLERKR” stands “not failed”; under “MKVLIGGYTKKTSKGIYELPFIGEDNEAHLEKAENIISVGGPTYFQKDGDLVFTINNAGDEGGISAFKLSDHGSNEIDRHLTPGASPAYIGINKEKKLLYTANYHTAVLSVFQYSNSGKLALVAQTTHKAESLGPRPEQVDGPHPHFFDETPAGNLVSCDLGNDTVDFYRLENNELKHLAQYKNEAGFGDRHIVFSKDGNYFYVVGELSSQINVVKFNENTWEFEDIATYKTIPEDFTEHNGAAALYITNDGKYIYNSNRGHNSITVFKVNDDHTLSLIQRISTFGDFPRDFNWDETQKYVVAANQNTDNATLYLRNGGNGTLTPIQTEIPVPEGTRVLFTKLEHHHHHH”, “failed”; under “MKVNTWFGVLELDSNGKTLSSEVFPKDIRELALRSLSLRESRQNLPPEGFDLKTAALECGFTESLSEYYSLLHKVTLETVKLQVSQALTPDQRIIQAVEALDDINETTNSLSERLFEWYGGYFPESGLSGEELAVFISRYGSRENLPPEDPHYLKAKNSMGAKLEAADEVLLKGLAESVCSLYERRKQIEAYIESSMEILAPNLALLAGPMLGARLISIAGSLEKLAAFPSSTIQVIGASKALFKHLRSRAPSPKHGIIYSHPLINTSPWWVRGKVARALAAKLSLAARIDFYSAKRNPSLENELEEKIRKIRAENPRPPQKRQEIRAKPKKKRRKLEHHHHHH”, “not failed”.
Next, “MKVVERYIMRRAFVVFLAALVWTLAIVWTTQVLAKIDLVTDSGQSSLTFFEVAALILPSIIPIVVPFALVVAVAQTLSVMNSDSELVVVNAAGASRWTIVRPIMLLALAASVFSFAVDNGIDPYARQKNRALVAQSRADLLSLIIQEGTFRKIEDGLFLQIGERLPDNRLGGIFVADSREEGVNLVYYAKTGSVVERGGEKVLMMNDGVIHRKTLTGDLSVIRFTSYAFDMSAFMAAASEVTLLPKDQTTQYLLNPNVNDKLYQQAPQQYRAEIDQRFSEWLYSMVFALIALAVAGDARSHREARVNPLITAITISLFVRWLGFFAASKADEVPQYAYMVYGVPIVASAVAIWFIVSNRTMELPVAWADWMTNLASRVGDGWNALKLRWSRRGTSGQGIG”: “failed”; “MKVVILGSGSYSGTPKPLCNCENCSIARRNPAFRRTRFSLYIEEGKILVDPSPDLHYHLERLNKKVENVFITHAHFDHIFGVPDLQVYKKLIISSNTLGIKVAKELSRLAFGSEVPSGYEWRYEELQFWNEYSFDNFRVIHFPVIHSLEIAGGYLFEIKGRRIGVTGDTGPEILKDEKVKKLLEGVDILIVEMTKRESIPGVHLGVSDSIEFAKVVGASYTVFAHISHTNYSHEVLEKRVRESGVQGEVARDFTIIEVLEHHHHHH”: “failed”; “MKVVVVDGGGLMGVETALCVRDHGHEVALVQAPGDPHAPLSDEVAEALRGCSVLVDLAHQPSVDIGTLAEDHGLVVDEAALVDSWAGSTGALLRAGAAAGVRHHVCLSVVGVDRIGREGVFRALRNREAMARRSGIPYSILRATQTFDAAEDIATAATEDWIVWVPPAEVRPVSLTDVATLLAHTAVTRPVNGVREIAGPEQFRLDAFVRTALLTEAEYRQVRTDALSPFYGARLRPRDLLPGPDAFIARTTYREWFTGRPAPDTTS”: “failed”.
With “MKVYPKVSIVMPVYNSERYLAEAIESILDQTYNDFEFIIVDDGSTDESYNIISSYANKDNRIIVISREHRGLVDSLNEGINIARGKYIARMDADDISINNRIEKQFEFLELNKDVDILGTRIEAFGDIDEKQKTIYNSAFSIKFDSQNIEQVFLTSCAIPHPSVMFKKDSIVKLRGYRKEYDTAEDYDLWLRAIRNGYKIVRMDECLIKYRVHNKSKTAVEMFNPKMVEYTMKAKIDYINDTNKKDKVDYLIWGASTGGKLVKKVVESTTDKFNLIGFIDKYKEGEVDECRIYKPEDLMKLHSDYVFIATLPGKEEADEFLKNCGLKKFKEYISLVLEHHHHHH”, the protein production result is recorded as “failed”.
Under “MKWLDRLKIANYHRKRYKQFGNDKARTLGWQDEYSQISRFEALTRSLCLEAVSILDIGCGFGDLLEYIESQNQYPARYVGIDLQKQFITKARKKAFKTPVNFICGDFSKLVLPQSDYVFASGSLNYKSSNANHTIEMIEKMYRAARIGCVFNLLDEEKLPSMRMLESHNKVGVLRYCRWLCPDAQLIEGYSDHDFTIVMIKKAEPVS” stands “failed”; under “MKWNSNLYDHKHSFVAEYGKSMINFVNVGKDQKILDLGCGTGVLTNELAKNGATVIGTDLSKNMIDKAKTNYPNLIFQVKDATNLSFKNEFDTVFSNAVFHWISNQEKLLHSIYTCLKDNGTLICEFGAQNNISQIQTAFEKVIEQKGYSYCSPFFFPSKEEYKLLLDQAGFEVKHIIEYDRPTPLADGEKGLRNWICQFFASDLLEFSDEQKEQILFETEKLCKNSIWKNNQWVADYRRIQIIAVKNKNNGTK”, “failed”; under “MKWPWWPVCVPLSKRLTLPLPSTANPVVQPSRLALACANRLFEAADNRERFLQALMTPPAYPATVLWCGEPAAALPFAALPPLPWQPPWVSRFVAGSPTGQHPLHAAGAYYCLDSSSVFAAVPLLTLPQEPSLVIDVCAAPGGKSLFAWRSLHPRYLICNETIGKRVGKLIGNLKRCRVHPVGVTSWDSEVLAAEFQGTADVVIVDAPCSGQSLLAKGQKAEGCFHPLTIRHNQRRQKRILAAATTLVRPGGWLLYSTCTFSQDENEDVAAWLMAKFPHLLPQPVPALAAYQSHLAAFPCYRLWPHQGEGAGAFTILWQHQGKGESNPLPDLGNRRAFGDRWRWQSSSQPA”, “failed”.
Regarding “MKWRCLIYIETRGDILFMTKWFNVGKIVNTHGVRGEIRVISRTDFPEERYKVGNTLYISNEKGTDYLPVKVTSHRQHKTFDLLTFEGYNNVDEVEKFKGSLIKVPEEQLGELAEGEYYYHEIIGCSVVTEEGEALGTIKEILSPGANDVWVIKRPKGQDLLIPYIDDVVLQVNIENKLVTIHVMEGLLLEHHHHHH”, the protein production entry is on record as “not failed”.
Under “MKWYTKYLQVYEKPFSEAPQEIVEEVRNKLKLLQSDNPLVTVSLIGYNEEKHLLASLWSLSEMKCKYPIEIIGTDNDSKDQTATIYEATGIPYVIEHQHSCGHARLCGLKRAKGKYHINIDSDTMYPPHYVETMVDALERPGIVAVSSLWSYIPDKEHSWVGLKIYEFIRDIHLWIQSIKRPELSVRGLVFAYRTDYARQVGIRTDIRRGEDGSLALRLKEYGNIYFIRKRKARAITGYGTISADGSLFNSFKVRAIYALKNIGRVFTRKKEYKDEDDNLIKSLEHHHHHH” stands “not failed”; under “MKYAITGATGHLGQQIVAAMRPLVATTELYLGVHTLSKAQVYQQQGLHIAAIDYQQPEQLRAFFQDSDVLIYIPSKSHDSYSRVQEFENVLAAVQQANVHHFLVMGFIADQVNNPFALSAFYGYVPRRLAGSDINYTIVRNALYADPLVPYLPELIERHNVVYPMADQALSFISQADSAAAFAKVATTPDLLQRGRIYTLTQSRAYTMPELATVLSQVSGQLIGYRPVSLQAFSNMYNQNGEGPMLASMYAGGARGLLATVSDDYQLIMDRPAQSLLDYLQTNYQKS”, “failed”.
